According to patent US20250032605A1 (GENERAL HOSPITAL, published 2025):

What was measured:
[1] = target: T1, SARS-2 RBM^hg RBD construct (SARS-2 RBD with engineered glycans at 448, 475, 494 and 501) (SARS-CoV-2 (engineered), UniProt P0DTC2 319-529); assay: BLI with recombinant Fabs, drawn table of KD (µM), column ΔRBM
[2] = target: T1, SARS-2 RBM^hg RBD construct (SARS-2 RBD …); assay: BLI with recombinant Fabs, drawn table of KD (µM)

B1: Ab19 Fab (Fab, V domains shown)
VH: QVQLQQSGAELARPGASVKLSCKASGYPFTSYGINWVKQRTGQGLEWIGEIYPRIGNTYYNEKFKGKATLTADKSSSTAYMEFRSLTSEDSAVYFCARSWNSNYGEYYFDYWGQGTTLTVS
VL: DIVMTQSHKFMSTSIGDRVSITCKASHDVSTAVAWYQQKPGQSPKLLIYWASTRHTGVPDRFTGSGSGTDYTLTIRSVQAEDLALYYCQQHYSTPYTFGGGTKLEIK
**Q.** Which results are given for B1?
**A.** Kd [1]: > 100000 nM; Kd [2]: > 100000 nM

B2: Ab20 Fab (Fab, V domains shown)
VH: EVQLQQSGPELVKPGASVKISCKASGFSFTGYSMNWMKQSPEKSLEWIGEINPTTGGTTYNQKFKAKATLTVDKSSSTAYIQLKSLTSEDSAVYYCARGRADYWGQGTTLTVSS
VL: DIVLTQSPASLAVSLGQRATISCRASESVEYYGTGLVQWFQQKPGQPPKLLIYAASNVESGVPARFSGSGSGTDFSLNIHSVEEDDIAMYFCHQSRKLPWTFGGGTKLEIK
**Q.** Which Kd [1] does the source give for B2 here?
**A.** Its Kd is > 100000 nM.

**Q.** What about the Kd [2] of the same binder?
**A.** The Kd was > 100000 nM.

B3: Ab15 Fab (Fab, V domains shown)
VH: EVQLQQSGPELVKPGASVKISCKASGYSFTGYYMNWVKQSPEKSLEWIGEINPNFGGTTYNQKFKAKATLTVDKSSSTAYMQLKSLTSEDSAVYYCARYYGNLYAMDYWGQGTSVTVS
VL: DILMTQSPSSMSVSLGDTVSITCHASQGISSNIGWLQQKPGKSFKGLIYHGTNLEDGVPSRFSGSGSGAAYSLTISSLESEDFADYYCVQYTHFPYTFGGGTKLEIK
**Q.** How did the Kd [1] turn out when B3 was run?
**A.** The Kd was 1300 nM.

**Q.** And the Kd [2]?
**A.** Its Kd is 1300 nM.

B4: Ab17 Fab (Fab, V domains shown)
VH: EVQLQQSGPELVKPGASVKISCKASGYSFTDYYMNWVKQSPEKSLEWIGEINPNTGGTTYNQKFKAKATLTVDKSSSTAYMQLKSLTSEDSAVYYCARYYGNLYAMDYWGQGTSVTVSS
VL: DILMTQSPSSMSVSLGDTVSITCHASQGISSNIGWLQQKPGKSFKGLIYHGTNLEDGVPSRFSGSGSGADYSLTISSLESEDFADYYCVQYVQFPYTLGGGTKLEIK
**Q.** For B4, which Kd [2] is on record?
**A.** Its Kd is 100 nM.

B5: Ab16 Fab (Fab, V domains shown)
VH: EVQLQQSGPELVKPGASVKISCKASGYSFNNYYMNWVKQSPEKSLEWIGEINPNSGYTSYNQKFRAKATLTVDKSSTTAYMQLKSLTSEDSAVYYCARYFGNLFAMDFWGQGTSVTVS
VL: DILMTQSPSSMSVSLGDTVSITCHASQGIGSNIGWLQQKPGKSFKGLIYLGTNLEDGVPSRFSGSGSGADYSLTISSLESEDFADYYCVQYVQFPYTFGGGTKLEIK
**Q.** With B5 as the binder, how does the Kd [2] read?
**A.** Its Kd is 160 nM.
